Experimental data taken from patent US20220177587A1, “METHODS AND USES OF VARIANT CD80 FUSION PROTEINS AND RELATED CONSTRUCTS” (Alpine Immune Sciences, Inc., priority 2018, published 2022).

Assays:
[1] = target: PD-L1 (human) (UniProt Q9NZQ7); assay: flow cytometry, CHO cells expressing huPD-L1
[2] = target: human CTLA-4 (human) (UniProt P16410); assay: flow cytometry, CHO cells expressing huCTLA-4
[3] = target: CD28 (human) (UniProt P10747); assay: flow cytometry, Jurkat/IL2 reporter cells (CD28)
[4] = target: human CTLA-4 (huCTLA4), on stably transduced CHO cells (human) (UniProt P16410); assay: flow cytometry on CHO cells stably expressing huCTLA4, 33.3 nM Fc fusion, PE anti-human Fc
human CTLA-4 (huCTLA4), on stably transduced CHO cells (human), sequence (P16410 36-223): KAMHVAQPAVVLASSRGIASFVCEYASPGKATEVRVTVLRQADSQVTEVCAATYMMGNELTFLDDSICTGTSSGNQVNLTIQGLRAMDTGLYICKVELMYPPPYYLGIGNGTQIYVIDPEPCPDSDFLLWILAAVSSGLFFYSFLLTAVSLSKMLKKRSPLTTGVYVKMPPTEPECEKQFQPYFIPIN

[5] = target: CD28, endogenously expressed on Jurkat/IL2 reporter cells (human) (UniProt P10747); assay: flow cytometry on Jurkat/IL2 reporter cells (endogenous CD28), 33.3 nM Fc fusion, PE anti-human Fc
[6] = target: human PD-L1 (huPD-L1), on stably transduced CHO cells (human) (UniProt Q9NZQ7); assay: flow cytometry on CHO cells stably expressing huPD-L1, 33.3 nM Fc fusion, PE anti-human Fc
human PD-L1 (huPD-L1), on stably transduced CHO cells (human), sequence (Q9NZQ7 19-290): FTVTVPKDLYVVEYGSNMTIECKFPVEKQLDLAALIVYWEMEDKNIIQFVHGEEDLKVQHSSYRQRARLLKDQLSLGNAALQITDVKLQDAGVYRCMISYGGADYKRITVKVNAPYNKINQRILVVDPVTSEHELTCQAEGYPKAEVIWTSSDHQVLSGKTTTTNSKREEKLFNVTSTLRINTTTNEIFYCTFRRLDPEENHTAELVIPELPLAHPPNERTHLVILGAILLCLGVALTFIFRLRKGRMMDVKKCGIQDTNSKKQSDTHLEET

[7] = target: CD28 (human) (UniProt P10747); assay: flow cytometry, Jurkat cells (CD28)
[8] = target: human CTLA-4 (human) (UniProt P16410); assay: flow cytometry, CHO cells stably expressing CTLA4
[9] = target: PD-L1 (human) (UniProt Q9NZQ7); assay: flow cytometry, CHO cells stably expressing PD-L1
[10] = target: PD-L1 (human) (UniProt Q9NZQ7); assay: flow cytometry, MFI on PD-L1 cells over MFI on CD28 cells
[11] = target: CD28 (human) (UniProt P10747)

PD-L1 (human), sequence (Q9NZQ7 19-290): as above
human CTLA-4 (human), sequence (P16410 36-223): as the sequence (P16410 36-223) above

## variant CD80 IgV-Fc V68M (Fc fusion)
[1]
  MFI at 33.3 nM: 118 MFI
[2]
  MFI at 33.3 nM: 568 MFI
[3]
  MFI at 33.3 nM: 37.9 MFI

## variant CD80 IgV-Fc E35D/M47V/I61V/L85M (Fc fusion)
[4]
  MFI at 33.3 nM: 28800 MFI
[5]
  MFI at 33.3 nM: 274 MFI
[6]
  MFI at 33.3 nM: 3050 MFI

## variant CD80 IgV-Fc E35D/D46V/M47V/V68M/K89N (Fc fusion)
[1]
  MFI at 33.3 nM: 21600 MFI
[3]
  MFI at 33.3 nM: 2120 MFI

## variant CD80 IgV-Fc E35D/M47V/T62S/L85Q (Fc fusion)
[4]
  MFI at 33.3 nM: 31200 MFI
[5]
  MFI at 33.3 nM: 99.4 MFI

## variant CD80 IgV-Fc V22A/E35D/M47L/A71G (Fc fusion)
[4]
  MFI at 33.3 nM: 21900 MFI
[5]
  MFI at 33.3 nM: 990 MFI
[6]
  MFI at 33.3 nM: 8170 MFI

## variant CD80 IgV-Fc H18Y/E35D/M47V/N48K (Fc fusion)
[5]
  MFI at 33.3 nM: 841 MFI
[6]
  MFI at 33.3 nM: 6460 MFI

## variant CD80 IgV-Fc A26E/E35D/M47L/V68M/A71G/D90G (Fc fusion)
[7]
  Fold change to WT CD80: 50.4 fold
  MFI at 33.3 nM: 2210 MFI
[8]
  Fold change to WT CD80: 16 fold
  MFI at 33.3 nM: 21700 MFI
[9]
  Fold change to WT CD80: 693 fold
  MFI at 33.3 nM: 30200 MFI
[10]
  Ratio of PDL1:CD28: 13.7

## variant CD80 IgV-Fc M47L/V68M/L85Q (Fc fusion)
[1]
  MFI at 33.3 nM: 4040 MFI
[2]
  MFI at 33.3 nM: 11100 MFI
[3]
  MFI at 33.3 nM: 60.9 MFI

## variant CD80 IgV-Fc N48K/V68M (Fc fusion)
[1]
  MFI at 33.3 nM: 754 MFI
[2]
  MFI at 33.3 nM: 2340 MFI
[3]
  MFI at 33.3 nM: 118 MFI

## variant CD80 IgV-Fc E35D (Fc fusion)
[1]
  MFI at 33.3 nM: 2580 MFI
[2]
  MFI at 33.3 nM: 42900 MFI
[3]
  MFI at 33.3 nM: 134 MFI

## variant CD80 IgV-Fc H18Y/A26E/E35D/V68M/D90G (Fc fusion)
[7]
  Fold change to WT CD80: 58.9 fold
  MFI at 33.3 nM: 2580 MFI
[8]
  Fold change to WT CD80: 14.2 fold
  MFI at 33.3 nM: 19300 MFI
[9]
  Fold change to WT CD80: 532 fold
  MFI at 33.3 nM: 23200 MFI
[10]
  Ratio of PDL1:CD28: 9

## variant CD80 IgV-Fc E35D/M47V/L85M/R94Q (Fc fusion)
[4]
  MFI at 33.3 nM: 23300 MFI
[5]
  MFI at 33.3 nM: 23.7 MFI

## variant CD80 IgV-Fc V68M/K89N (Fc fusion)
[1]
  MFI at 33.3 nM: 538 MFI
[2]
  MFI at 33.3 nM: 2330 MFI

## variant CD80 IgV-Fc H18Y/E35D/M47L/V68M/A71G (Fc fusion)
[7]
  Fold change to WT CD80: 21.1 fold
  MFI at 33.3 nM: 928 MFI
[8]
  Fold change to WT CD80: 17.4 fold
  MFI at 33.3 nM: 23700 MFI
[9]
  Fold change to WT CD80: 697 fold
  MFI at 33.3 nM: 30400 MFI
[10]
  Ratio of PDL1:CD28: 32.7

## variant CD80 IgV-Fc M47V/V68M/K89N (Fc fusion)
[1]
  MFI at 33.3 nM: 11800 MFI
[2]
  MFI at 33.3 nM: 24800 MFI
[3]
  MFI at 33.3 nM: 1320 MFI

## WT IgG1 Fc Control
[11]
  IL-2 release, primary T cells + K562/OKT3 (No PD-L1), 100 nM: 6260

## variant CD80 IgV-Fc D46V/V68M/L85Q (Fc fusion)
[1]
  MFI at 33.3 nM: 4170 MFI
[2]
  MFI at 33.3 nM: 7570 MFI

## variant CD80 IgV-Fc D46V/M47L (Fc fusion)
[1]
  MFI at 33.3 nM: 3900 MFI
[2]
  MFI at 33.3 nM: 49700 MFI

## variant CD80 IgV-Fc E35D/D46V/M47L/V68M (Fc fusion)
[1]
  MFI at 33.3 nM: 29300 MFI
[2]
  MFI at 33.3 nM: 34300 MFI

## variant CD80 IgV-Fc E35D/M47L/A71G (Fc fusion)
[4]
  MFI at 33.3 nM: 20600 MFI
[6]
  MFI at 33.3 nM: 6640 MFI

## variant CD80 IgV-Fc E35D/M47L/V68M/L85Q (Fc fusion)
[1]
  MFI at 33.3 nM: 15300 MFI
[2]
  MFI at 33.3 nM: 28100 MFI
[3]
  MFI at 33.3 nM: 159 MFI

## variant CD80 IgV-Fc E35D/N48K/L72V (Fc fusion)
[5]
  MFI at 33.3 nM: 582 MFI
[6]
  MFI at 33.3 nM: 3030 MFI

## variant CD80 IgV-Fc H18Y/A26E/M47L/V68M/D90G (Fc fusion)
[7]
  Fold change to WT CD80: 0.7 fold
  MFI at 33.3 nM: 32 MFI
[8]
  Fold change to WT CD80: 21.1 fold
  MFI at 33.3 nM: 28600 MFI
[9]
  Fold change to WT CD80: 541 fold
  MFI at 33.3 nM: 23600 MFI
[10]
  Ratio of PDL1:CD28: 737
